The substances below were run against human pro-BMP7 protein variant F9 (human) (UniProt P18075) (assay: cell-based or functional assay).
Sequence of human pro-BMP7 protein variant F9 (human) (P18075 other isoform, or with tags, fused parts or gaps mutant, chain 1 of 2): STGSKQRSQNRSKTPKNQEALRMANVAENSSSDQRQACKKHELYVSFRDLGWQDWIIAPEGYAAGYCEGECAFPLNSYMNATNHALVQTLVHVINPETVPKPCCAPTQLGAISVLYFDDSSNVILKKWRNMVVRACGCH
Sequence of human pro-BMP7 protein variant F9 (human) (P18075 other isoform, or with tags, fused parts or gaps mutant, chain 2 of 2): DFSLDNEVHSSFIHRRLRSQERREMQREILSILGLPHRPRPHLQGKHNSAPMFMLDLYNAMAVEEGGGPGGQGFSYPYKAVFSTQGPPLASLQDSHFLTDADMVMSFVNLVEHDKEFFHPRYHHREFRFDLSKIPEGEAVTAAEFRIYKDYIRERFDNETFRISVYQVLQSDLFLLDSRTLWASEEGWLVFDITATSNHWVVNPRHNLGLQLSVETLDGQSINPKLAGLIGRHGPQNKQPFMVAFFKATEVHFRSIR

Sequence of Follistatin (P19883 30-344): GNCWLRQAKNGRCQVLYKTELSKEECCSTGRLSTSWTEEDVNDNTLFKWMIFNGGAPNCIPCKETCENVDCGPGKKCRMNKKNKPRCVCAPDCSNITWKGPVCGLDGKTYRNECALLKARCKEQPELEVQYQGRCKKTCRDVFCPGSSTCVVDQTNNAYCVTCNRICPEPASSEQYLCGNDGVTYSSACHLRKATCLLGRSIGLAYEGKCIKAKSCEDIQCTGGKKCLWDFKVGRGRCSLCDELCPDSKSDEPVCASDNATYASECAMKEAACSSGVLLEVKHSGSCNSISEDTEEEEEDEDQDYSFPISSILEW

**Q.** Chordin was tested. Which % inhibition, 0.1X molar excess of inhibitor (hepcidin promoter luciferase, Hep3B2 HepPro luc cells) did it give?
**A.** -5.9%

**Q.** And the % inhibition, 1X molar excess of inhibitor (hepcidin promoter luciferase, Hep3B2 HepPro luc cells)?
**A.** -5.3%

**Q.** And the % inhibition, 10X molar excess of inhibitor (hepcidin promoter luciferase, Hep3B2 HepPro luc cells)?
**A.** -1.3%

**Q.** And the % inhibition, 100X molar excess of inhibitor (hepcidin promoter luciferase, Hep3B2 HepPro luc cells)?
**A.** -17.7%

**Q.** How did the % inhibition, 0.1X molar excess of inhibitor (hepcidin promoter luciferase, Hep3B2 HepPro luc cells) turn out when Chordin-like 2 was run?
**A.** 3.5%

**Q.** What about the % inhibition, 1X molar excess of inhibitor (hepcidin promoter luciferase, Hep3B2 HepPro luc cells) of the same substance?
**A.** 2.4%

**Q.** What about the % inhibition, 10X molar excess of inhibitor (hepcidin promoter luciferase, Hep3B2 HepPro luc cells) of the same substance?
**A.** 8.8%

**Q.** What about the % inhibition, 100X molar excess of inhibitor (hepcidin promoter luciferase, Hep3B2 HepPro luc cells) of the same substance?
**A.** 24.9%

**Q.** What does the source list for Follistatin?
**A.** % inhibition, 0.1X molar excess of inhibitor (hepcidin promoter luciferase, Hep3B2 HepPro luc cells): -2.6%; % inhibition, 1X molar excess of inhibitor (hepcidin promoter luciferase, Hep3B2 HepPro luc cells): -4.3%; % inhibition, 10X molar excess of inhibitor (hepcidin promoter luciferase, Hep3B2 HepPro luc cells): 11.7%; % inhibition, 100X molar excess of inhibitor (hepcidin promoter luciferase, Hep3B2 HepPro luc cells): 22.5%

Each substance was assayed against human mature BMP7 protein variant F9 (SEQ ID NO: 8) (human) (UniProt P18075) (assay: cell-based or functional assay).
Sequence of human mature BMP7 protein variant F9 (SEQ ID NO: 8) (human) (P18075 other isoform, or with tags, fused parts or gaps mutant): as the sequence (P18075 other isoform, or with tags, fused parts or gaps mutant, chain 1 of 2) above

**Q.** Chordin was tested. Which % inhibition, 0.01X molar excess of inhibitor (hepcidin promoter luciferase, Hep3B2 HepPro luc cells) did it give?
**A.** 3.7%

**Q.** What about the % inhibition, 0.1X molar excess of inhibitor (hepcidin promoter luciferase, Hep3B2 HepPro luc cells) of the same substance?
**A.** 6.8%

**Q.** What about the % inhibition, 1X molar excess of inhibitor (hepcidin promoter luciferase, Hep3B2 HepPro luc cells) of the same substance?
**A.** 5.2%

**Q.** And the % inhibition, 10X molar excess of inhibitor (hepcidin promoter luciferase, Hep3B2 HepPro luc cells)?
**A.** 5.6%

**Q.** Which % inhibition, 0.01X molar excess of inhibitor (hepcidin promoter luciferase, Hep3B2 HepPro luc cells) does the source give for Chordin-like 2 here?
**A.** -1.5%

**Q.** And the % inhibition, 0.1X molar excess of inhibitor (hepcidin promoter luciferase, Hep3B2 HepPro luc cells)?
**A.** -3.2%

**Q.** And the % inhibition, 1X molar excess of inhibitor (hepcidin promoter luciferase, Hep3B2 HepPro luc cells)?
**A.** -1%

**Q.** And the % inhibition, 10X molar excess of inhibitor (hepcidin promoter luciferase, Hep3B2 HepPro luc cells)?
**A.** 9%

**Q.** What does the source list for Follistatin?
**A.** % inhibition, 0.01X molar excess of inhibitor (hepcidin promoter luciferase, Hep3B2 HepPro luc cells): 3.9%; % inhibition, 0.1X molar excess of inhibitor (hepcidin promoter luciferase, Hep3B2 HepPro luc cells): 10.6%; % inhibition, 1X molar excess of inhibitor (hepcidin promoter luciferase, Hep3B2 HepPro luc cells): 10%; % inhibition, 10X molar excess of inhibitor (hepcidin promoter luciferase, Hep3B2 HepPro luc cells): 23.8%

What follows are substances tested against wild type human mature BMP7 (SEQ ID NO: 2) (human) (UniProt P18075) (assay: cell-based or functional assay).
Sequence of wild type human mature BMP7 (SEQ ID NO: 2) (human) (P18075 293-431): as the sequence (P18075 other isoform, or with tags, fused parts or gaps mutant, chain 1 of 2) above, with G65Y, L86I, V93F, G110N, W128Y counted along it

**Q.** What does the source list for Chordin?
**A.** % inhibition, 0.1X molar excess of inhibitor (hepcidin promoter luciferase, Hep3B2 HepPro luc cells): -13.1%; % inhibition, 1X molar excess of inhibitor (hepcidin promoter luciferase, Hep3B2 HepPro luc cells): -9.2%; % inhibition, 10X molar excess of inhibitor (hepcidin promoter luciferase, Hep3B2 HepPro luc cells): 21.3%; % inhibition, 100X molar excess of inhibitor (hepcidin promoter luciferase, Hep3B2 HepPro luc cells): 70.9%

**Q.** How did the % inhibition, 0.1X molar excess of inhibitor (hepcidin promoter luciferase, Hep3B2 HepPro luc cells) turn out when Chordin-like 2 was run?
**A.** -13.7%

**Q.** And the % inhibition, 1X molar excess of inhibitor (hepcidin promoter luciferase, Hep3B2 HepPro luc cells)?
**A.** 49%

**Q.** What about the % inhibition, 10X molar excess of inhibitor (hepcidin promoter luciferase, Hep3B2 HepPro luc cells) of the same substance?
**A.** 69.5%

**Q.** What about the % inhibition, 100X molar excess of inhibitor (hepcidin promoter luciferase, Hep3B2 HepPro luc cells) of the same substance?
**A.** 71.9%

**Q.** With Follistatin as the substance, how does the % inhibition, 0.1X molar excess of inhibitor (hepcidin promoter luciferase, Hep3B2 HepPro luc cells) read?
**A.** -16.6%

**Q.** What about the % inhibition, 1X molar excess of inhibitor (hepcidin promoter luciferase, Hep3B2 HepPro luc cells) of the same substance?
**A.** -11.9%

**Q.** And the % inhibition, 10X molar excess of inhibitor (hepcidin promoter luciferase, Hep3B2 HepPro luc cells)?
**A.** 21.1%

**Q.** And the % inhibition, 100X molar excess of inhibitor (hepcidin promoter luciferase, Hep3B2 HepPro luc cells)?
**A.** 54.7%

These substances were tested against wild type human pro-BMP7 (human) (UniProt P18075) (assay: cell-based or functional assay).
Sequence of wild type human pro-BMP7 (human) (P18075 293-431, chain 1 of 2): as the sequence (P18075 other isoform, or with tags, fused parts or gaps mutant, chain 1 of 2) above, with G65Y, L86I, V93F, G110N, W128Y counted along it
Sequence of wild type human pro-BMP7 (human) (P18075 other isoform, or with tags, fused parts or gaps, chain 2 of 2): as the sequence (P18075 other isoform, or with tags, fused parts or gaps mutant, chain 2 of 2) above

**Q.** With Chordin as the substance, how does the % inhibition, 0.1X molar excess of inhibitor (hepcidin promoter luciferase, Hep3B2 HepPro luc cells) read?
**A.** -15.1%

**Q.** And the % inhibition, 1X molar excess of inhibitor (hepcidin promoter luciferase, Hep3B2 HepPro luc cells)?
**A.** -2.2%

**Q.** What about the % inhibition, 10X molar excess of inhibitor (hepcidin promoter luciferase, Hep3B2 HepPro luc cells) of the same substance?
**A.** 18.9%

**Q.** What about the % inhibition, 100X molar excess of inhibitor (hepcidin promoter luciferase, Hep3B2 HepPro luc cells) of the same substance?
**A.** 76.5%

**Q.** Which % inhibition, 0.1X molar excess of inhibitor (hepcidin promoter luciferase, Hep3B2 HepPro luc cells) does the source give for Chordin-like 2 here?
**A.** 8.9%

**Q.** What about the % inhibition, 1X molar excess of inhibitor (hepcidin promoter luciferase, Hep3B2 HepPro luc cells) of the same substance?
**A.** 55.9%

**Q.** And the % inhibition, 10X molar excess of inhibitor (hepcidin promoter luciferase, Hep3B2 HepPro luc cells)?
**A.** 87.5%

**Q.** And the % inhibition, 100X molar excess of inhibitor (hepcidin promoter luciferase, Hep3B2 HepPro luc cells)?
**A.** 88.2%

**Q.** Which results are given for Follistatin?
**A.** % inhibition, 0.1X molar excess of inhibitor (hepcidin promoter luciferase, Hep3B2 HepPro luc cells): -10.4%; % inhibition, 1X molar excess of inhibitor (hepcidin promoter luciferase, Hep3B2 HepPro luc cells): 5.9%; % inhibition, 10X molar excess of inhibitor (hepcidin promoter luciferase, Hep3B2 HepPro luc cells): 29.5%; % inhibition, 100X molar excess of inhibitor (hepcidin promoter luciferase, Hep3B2 HepPro luc cells): 79.8%
